Measured values taken from the supplement of paper PMC9170038.

System: MS2 coat protein
Assay: apparent KD of MS2 coat protein; designed switch direction (-1 OFF switch, 1 ON switch): 1; higher = weaker reporter binding
Outline: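 Each step of the titration lasted 0.8–1.5 h at the lowest concentration and 10–20 min at the highest. The protein, SNAP-549-labelled MS2 coat protein, went from 0.7 or 1.5 nM doubling to 3 µM over RNA switches transcribed on Illumina chips by stalled E. coli RNA polymerase. Normalised cluster fluorescence was curve-fitted, and the per-design median over clusters is given as apparent KD.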

[1] = input ligand: microRNA oligo, concentration not stated
[2] = Eterna round: R95, input ligand: FMN 200 uM
[3] = Eterna round: R95, input ligand: microRNA oligo, concentration not stated
[4] = Eterna round: R95, input ligand: none

Sequence	apparent KD of MS2 coat protein (input ligand: FMN 200 uM)	apparent KD of MS2 coat protein [1]	apparent KD of MS2 coat protein (input ligand: none)	apparent KD of MS2 coat protein [2]	apparent KD of MS2 coat protein [3]	apparent KD of MS2 coat protein [4]
GCUAGAAAUAAAGCCAACAUGAGGAUCACCCAUGUAUGUUGGCAGGAUAUCGUAUGCAAAGCAUACGAGAAGGGCUAAACUAGC [Mat - Same State NG 3 - JL Mod - D6] (Eterna round: R96, puzzle: Same State NG 3)	129 nM	149 nM	201 nM			
GGAGCCGGCACCGAGGAUAUUCAUAUUAAAACAUGAGGAUCACCCAUGUAGGUCAAAAGACCUUGGGAGAAGGCGGAUCGGCUCG [Xeonanis - 31] (puzzle: Same State 2)				32.1 nM	802 nM	481 nM
GAAAAACAUGAGGAUCACCCAUGUGUAAACAAGGGAGGAUAUACAAAGACGUAAGUCAAAGUAGAAGGCCUAAAAG [Garnet 38] (Eterna round: R96, puzzle: Same State 1)	19.6 nM	54.3 nM	71.8 nM			
GGUGCCAAAUAAGCCUACAUGAGGAUCACCCAUGUAUGUAGGCAGGAUAUCGUAUGCAAAGCAUACGAGAAGGGCCUAGGCACC [Mat - Same State NG 3 - JL Mod - D63] (Eterna round: R96, puzzle: Same State NG 3)	18.8 nM	23.7 nM	41.3 nM			
GCCAUCGAGUGAGGAUAUGGCACCGAAACGGUGCCAGAAGGCAUGUCAAUUGACAUGAGGAUCACCCAUGUAUUAUCGAUGGCA [Mat - Same State NG 1 - JL mod - D87] (Eterna round: R96, puzzle: Same State NG 1)	154 nM	726 nM	1690 nM			
UUAAUUAUGUAAGGAUAUACAUGAGGAUUUCUCGUAGAAGGUACAUUACAUGAGGAUCACCCAUGUAGGUGUCCGUAGACGCCA [JL SSNG1 1.07] (Eterna round: R96, puzzle: Same State NG 1)	142 nM	78.3 nM	129 nM			
AAACGGUCGCUGCGGCGGCCACAUGAGGAUCACCCAUGUACAUAGGAUAUCGCCUAAAAUACUGGCGAGAAGGGUGAUUAAAGA [Ergegeti] (Eterna round: R96, puzzle: Same State NG 3)	132 nM	36.2 nM	79.4 nM			
UGUUGUUAAUUAGGAUAUGGGCACAUGAGGAUCACCCAUGUAUUGUCGAUGCUAUGUGGACACGUUUAGAAGGAAUGGCUAACA [SameState NG2 #91] (Eterna round: R96, puzzle: Same State NG 2)	64.4 nM	55.4 nM	64.8 nM			
AAUCGUUUGAUAGGAUAUCGCUAUACAUGAGGAUCACCCAUGUUUACCACGCUGGUUUUUCAUACCGAGAAGGAUUCUGAUGAC [salish99_SSNG02_r04_002] (Eterna round: R96, puzzle: Same State NG 2)	26.2 nM	22.6 nM	29.8 nM			
GGAGCCGGCCUAGGAUAUUUCAUAAAAUUACAUGAGGAUCACCCAUGUAGGCCAGAAGGCCUUGGGAAGAAGGAGGUCGGCUCC [Loop Effect - U28,U29] (Eterna round: R96, puzzle: Same State NG 2)	12.9 nM	17.5 nM	28.2 nM			
GGUAGGUUACUACCAAACAUGAGGAUCACCCAUGUAAGUGGGAAGGAUAUGGUACCUUUUAGGUACCAGAAGGUCCAUAAAAUU [JL Fiskers NG3ss - 2 mod 7] (Eterna round: R96, puzzle: Same State NG 3)	314 nM	355 nM	2090 nM			
UAGUGCAUUAGAGGAUAUUCUUACGACACGAGUAAGACAUGAGGAUCACCCAUGUUGUGGCAUGGGAAGAAGGCUGAUGUGCUA [Omei SS(NG)2 Bv9] (Eterna round: R96, puzzle: Same State NG 2)		45.3 nM				
AUUGCUAGCGCAGGAUAUGAUGCGAAAAUUGCGUCAGAAGGGUGUACUCUCUCAUUGCGGGAGGACAUGAGGAUCACCCAUGUC [SameState NG1 #83] (Eterna round: R96, puzzle: Same State NG 1)	66.6 nM	71.5 nM	83.3 nM			
GUUACAUGAGGAUCACCCAUGUGUGUGUGGGAGUGAGUGGCUUAGGAUAUCUAUGAUUUUAGUUAAGAGAAGGGAGAUUGUUGU [SS-NG3-LRO05] (Eterna round: R96, puzzle: Same State NG 3)	554 nM	276 nM	328 nM			
GUGGUCAGACAUGAGGAUCACCCAUGUGGAAUAAAUAACGAACAGGAUAUGCAAUAUAGGAUAUAGUAGAAGGGUUGAUUGGUG (Eterna round: R96, puzzle: Same State NG 3)		82.4 nM				
CGUCCGGCCUGUGCUGGCCGGAUGCAUGUACAUGAGGAUCACCCAUGUUCAUGUGCAGGCUUUUUGCUCGUCUUGUG [salish99_mir208a_r3_008] (puzzle: Sensor for hsa-mir-208a)				19.2 nM	11.9 nM	23.1 nM

Sequence	apparent KD of MS2 coat protein (input ligand: FMN 200 uM)	apparent KD of MS2 coat protein [1]	apparent KD of MS2 coat protein (input ligand: none)	apparent KD of MS2 coat protein [2]	apparent KD of MS2 coat protein [3]	apparent KD of MS2 coat protein [4]
GCCGGCUGAUGAGGAUAUGGCACCUUAUUGGUGCCAGAAGGCAUGUCAAUUGACAUGAGGAUCACCCAUGUAUUAUAGUUGGCG [salish99_SSNG1_r04_604] (Eterna round: R96, puzzle: Same State NG 1)	117 nM	233 nM	326 nM			
GAAAAGGCGACGCAGGAUAUGAAAGGUGAAACAUGAGGAUCACCCAUGUGCUACCUUCCGAUAAAUCAGAAGGGCGACGCCUAGA [Azaanre] (puzzle: Same State 2)				11.4 nM	9.79 nM	11.3 nM
AGCGAAAGCAGUCACAUGAGGAUCACCCAUGUAUUAACUAUUGAGGAUAUGCAGCGACGGGUGUAGCAGAAGGCAGUGAGAAGG [Eternabot solution 30] (Eterna round: R96, puzzle: Same State NG 3)	54.4 nM	52.1 nM	61.1 nM			
AAAAGAAACAUGUACCUGAGUACAUGAAAACAUGAGGAUCACCCAUGUAAUAAGUGGGUGUUUUGUCUUUGUCUUAU [JL pocket 34, mod 5] (Eterna round: R96, puzzle: Sensor for hsa-mir-208a)	50.8 nM	119 nM	51.8 nM			
AUUAGUGGUGGAGGAUAUGGGAAAGGAAGUGUACUAGAAGGCCACCGCCCUCUAGCACAUGAGGAUCACCCAUGUAUAGAGCCC [PowerStrip SSNG 1.14] (Eterna round: R96, puzzle: Same State NG 1)	243 nM	25.8 nM	88.2 nM			
AGAUCAUGACGAGGAUAUGGUACAUGAGGAUCACCCAUGUAUGUAUCAUAACGCGAAUGACGAAACCAGAAGGCGUCGUGGUCA [JL SSNG2 1.11] (Eterna round: R96, puzzle: Same State NG 2)	10.2 nM	14.6 nM	14.9 nM			
UCAACUUUUUUUAGUGUGUUGCCAGGUUAACAUGAGGAUCACCCAUGUAAAGUAUAGUGGGAUUAAGUUCGUCUUAA [JR_SHM208A_Sub072] (puzzle: Sensor for hsa-mir-208a)				77.2 nM	83.6 nM	93.9 nM
GAGGGACAGACCAACAUGAGGAUCACCCAUGUCCUCGCAGGUCAGGAUAUCAUGAGGAUCACCCAUGAGAAGGGACGGUGAACC (Eterna round: R96, puzzle: Same State NG 3)	155 nM	125 nM	149 nM			
UGGUACAUGGGAGGAUAUGGGCAUGAGACAUGAGGAUCACCCAUGUAUUAAAAGCCGAGAGGCAUCUAGAAGGCCCAUGUACCU [JL SSNG1 3.89] (Eterna round: R96, puzzle: Same State NG 2)	15.8 nM	80.2 nM	158 nM			
ACAUGAGAGUUAGGAUAUCUUGUACCUACAUGUGACAUGAGGAUCACCCAUGUGGUAAGUAUGACAGAGAAGGAACAGAUAUGU [Equivalance 69 - Jieux - Same State NG 2] (Eterna round: R96, puzzle: Same State NG 2)	36.2 nM	50.2 nM	91.1 nM			
AUUUUUAAUGCAGGAUAUGAUUAACAUGAGGAUCACCCAUGUGGUGUUGUGAGUAAGGAGAGUGAUCAGAAGGGCAUCUUUUUU [JMF's solution 81] (Eterna round: R96, puzzle: Same State NG 2)	567 nM	529 nM	490 nM			
CGGCGCUGUCGAGAGGAUAUGCGGUGAUGGACAUGAGGAUCACCCAUGUUAGCGAUAGCAUUACGGUAGAAGGCUCUAUAGUUGC [Soteed Omei mod 9] (puzzle: Same State 2)					248 nM	
UAGUGCAUUAGAGGAUAUUCUUACGACACGAGUAAGACAUGAGGAUCACCCAUGUCGUGGCAUGGGAAGAAGGCUGAUGUGCUA [Omei SS(NG)2 Bv7] (Eterna round: R96, puzzle: Same State NG 2)	14.4 nM	11.1 nM	34.7 nM			
UUUACAUUACGAGGAUAUCAUUUAUUUCAUGUUUGAGAAGGCGUUUUUUUUAUUACCUUACAUGAGGAUCACCCAUGUUUCUUU [JR_SSNG1_Sub043] (Eterna round: R96, puzzle: Same State NG 1)		26.2 nM				
AUCAAAAGAGGAGGAUAUGCAGAGGAUCACCCUGUAGAAGGCCACAGAGGAGGAUAUGCAGAGGAUCACCCUGUAGAAGGCCUC [pwkr ssNG DX.16] (Eterna round: R96, puzzle: Same State NG 1)	37.3 nM	156 nM	189 nM			
